± gives the uncertainty stated by the source.
Assay: protein stability index of a GFP-peptide fusion (yeast GPS) (PSI 1-4); higher = more stable; sorted into four equal gates, so the index is relative within each strain
How it was run: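 Plasmids in a pooled yeast library fused tiled 17-residue yeast protein peptides downstream of GFP and also expressed Cherry. Mid-log cultures grown without leucine were sorted into four equal gates by GFP/Cherry fluorescence ratio. Each gate's plasmids were PCR-amplified and Illumina-sequenced, and reads were matched to strains by barcodes. The protein stability index is derived by multiplying each gate's read frequency by its gate number and summing the results.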

Row | Sequence | protein stability index (doa10∆) | protein stability index (pdr5∆) | protein stability index (san1∆) | protein stability index (ubr1∆)
1 | VSKKWAAAAVCEKWAAS [RPL14A] | 2.42 ± 0.083 | 3.04 ± 0.15 | 2.6 ± 0.094 | 2.17 ± 0.077
2 | SKINELSYYVEETNVDI [SMC4] | 3.28 ± 0.17 | 2.98 ± 0.15 | – | 2.99 ± 0.15
3 | SNTVNANNYSSNIGNNS [YDL088C/ASM4] | 3.17 ± 0.14 | 3.39 ± 0.14 | 3.33 ± 0.12 | 3.19 ± 0.066
4 | PEGTLSGGSRNTSESLL [SMC2] | 3.4 ± 0.2 | 3.29 ± 0.15 | 3.44 ± 0.13 | 3.28 ± 0.25
5 | DLKRFVDESLLSTLPAG [QCR2] | 3.02 ± 0.067 | 3.23 ± 0.085 | 2.52 ± 0.099 | 3 ± 0.051
6 | SLDLIKERRSLKPEVRK [RPL24A] | – | – | – | 3.32 ± 0.22
7 | THNFKLSGVSNSMDMVD [RGR1] | 3.09 ± 0.068 | 3 ± 0.074 | 2.93 ± 0.06 | 3.08 ± 0.062
8 | NNNPLQQQSSQNTVPNV [GAL11] | 2.65 ± 0.046 | 2.86 ± 0.041 | 3 ± 0.033 | 2.82 ± 0.03
9 | DIPFFPSSEKPNIRTMS [SSN2] | – | – | 3.1 ± 0.22 | –
10 | QVLNRYTYSSTLSHLRR [RPB2] | 2.88 ± 0.043 | 2.83 ± 0.041 | 2.77 ± 0.041 | 2.81 ± 0.03
11 | TDDYFEELRDLYQTYHV [FAS1] | 3.09 ± 0.22 | 2.69 ± 0.076 | 3.33 ± 0.15 | 3.37 ± 0.11
12 | IGGSLARIALRHLEKEG [RPS25A] | 2.52 ± 0.068 | 2.5 ± 0.054 | 1.82 ± 0.082 | 2.51 ± 0.06
13 | IHSKSMSVERGIRWELI [RPT1] | 3.06 ± 0.068 | 3 ± 0.073 | 2.88 ± 0.071 | 3.04 ± 0.063
14 | NSDLEFNTFWDEKGNEI [ARP9] | 3.41 ± 0.08 | 3.25 ± 0.12 | 3.31 ± 0.12 | 3.34 ± 0.077
15 | LMLGSVNLPGGILRRKS [RRP4] | 1.96 ± 0.058 | 1.46 ± 0.11 | 1.54 ± 0.14 | 1.4 ± 0.047
16 | QVGDGLEILIVTKDGVR [PRE7] | 2.64 ± 0.054 | 2.6 ± 0.049 | 2.92 ± 0.053 | 2.76 ± 0.052
17 | FANYKLLLKKIIKDYVL [SRB4] | 2.41 ± 0.069 | 2.24 ± 0.068 | 1.97 ± 0.09 | 1.86 ± 0.035
18 | MAGKVLILTSHNMKAYY [BRR2] | 2.1 ± 0.06 | 2.46 ± 0.058 | 1.6 ± 0.094 | 2.4 ± 0.068
19 | PSLNPIPHFIDNNSSLN [PRP8] | 2.3 ± 0.063 | 2.52 ± 0.05 | 2.78 ± 0.055 | 2.4 ± 0.045
20 | PNERKAKQAKIRAGEFD [SNF2] | 3.62 ± 0.12 | 3.66 ± 0.18 | 2.99 ± 0.17 | 3.5 ± 0.14
21 | GVHDGEVEPALLLLQDY [RPN1] | 3.13 ± 0.2 | 3.46 ± 0.17 | – | 2.44 ± 0.24
22 | VKSEVDVQVDAEEKREA [ITC1] | 3.22 ± 0.17 | 2.97 ± 0.21 | 3.12 ± 0.23 | 3.16 ± 0.11
23 | ITGEDEVLCSRIIEKSV [RRP45] | 2 ± 0.051 | 2.45 ± 0.054 | 2.1 ± 0.098 | 1.89 ± 0.059
24 | KVLRKFRVQSQSNYGIY [NUT1] | 1.85 ± 0.053 | 2.29 ± 0.071 | 1.34 ± 0.11 | 2.3 ± 0.14
25 | NVYRVTVHKTFEGNVAT [PRP8] | – | 3.16 ± 0.23 | 3.23 ± 0.22 | 3.33 ± 0.15

Row | Sequence | protein stability index (doa10∆) | protein stability index (pdr5∆) | protein stability index (san1∆) | protein stability index (ubr1∆)
26 | YQELFIQPKNSDDQQEA [YML103C/NUP188] | 2.68 ± 0.066 | 2.31 ± 0.061 | 2.71 ± 0.053 | 2.64 ± 0.054
27 | AVTEREVLVTPGLEFLD [MCD1] | 2.85 ± 0.14 | 3.15 ± 0.15 | 2.75 ± 0.089 | 2.94 ± 0.13
28 | DLCSSVLSQFERSYPSE [ROX3] | 2.58 ± 0.094 | 3.42 ± 0.17 | 2.98 ± 0.074 | 3.17 ± 0.086
29 | FTSAPIEVTIGIDQYSF [AAR2] | 1.52 ± 0.09 | 1.93 ± 0.086 | 1.53 ± 0.12 | 1.64 ± 0.082
30 | EIGGSDLKESMVKGLLK [ECM29] | 2.63 ± 0.23 | 3.53 ± 0.16 | – | 2.76 ± 0.21
31 | SMRVKPSASLKLHHDLK [YMR129W/POM152] | 3.14 ± 0.079 | 2.98 ± 0.064 | 2.95 ± 0.062 | 3.1 ± 0.048
32 | LKMMKLIVDTHVQFRLG [PRP8] | 2.53 ± 0.08 | 2.21 ± 0.075 | 2.56 ± 0.059 | 1.93 ± 0.048
33 | LPFMQNAGPNSNIPNLL [YDL088C/ASM4] | 2.46 ± 0.037 | 2.18 ± 0.04 | 2.58 ± 0.039 | 2.52 ± 0.029
34 | FYSKNRLLITGTPLQNN [ISW2] | – | 1.39 ± 0.17 | – | –
35 | SSASPSALTSPTDSSKI [SIR3] | 2.71 ± 0.048 | 3.08 ± 0.055 | 2.87 ± 0.045 | 2.72 ± 0.033
36 | WKFKSLIEILRLRALQL [RRI2] | 1.45 ± 0.093 | 1.21 ± 0.075 | 1.14 ± 0.13 | 1.08 ± 0.075
37 | QARMMQQQSADHDDSTD [NSL1] | 2.76 ± 0.051 | 2.74 ± 0.058 | 2.62 ± 0.052 | 2.76 ± 0.039
38 | HWPLNWYLILSIISSKT [RGR1] | 1.57 ± 0.1 | 1.5 ± 0.08 | 1.4 ± 0.21 | 1.18 ± 0.067
39 | PVSPLDIYSDEASAQKK [RPS2] | 2.74 ± 0.095 | 2.93 ± 0.093 | 3.02 ± 0.075 | 3.02 ± 0.06
40 | SSEFVSQDTKVICSVTG [RRP46] | 2.67 ± 0.054 | 2.37 ± 0.056 | 2.43 ± 0.076 | 2.58 ± 0.059
41 | LVTCEGSEEKAFVPKKR [SRP54] | 2.19 ± 0.12 | 1.85 ± 0.11 | 1.62 ± 0.13 | 1.61 ± 0.066
42 | KIINTHSDMASKMYNTD [PRP8] | 2.72 ± 0.049 | 2.76 ± 0.052 | 2.77 ± 0.05 | 2.28 ± 0.029
43 | LAKKIAPGKVELAINLI [SMC2] | – | 2.88 ± 0.15 | – | 2.65 ± 0.1
44 | PILVTLVSDSEIIDLNL [POP6] | 2.29 ± 0.058 | 2.47 ± 0.046 | 2.36 ± 0.074 | 2.74 ± 0.054
45 | IGLPRHSLAYLLENFAN [RRP6] | 1.67 ± 0.04 | 1.78 ± 0.041 | 1.64 ± 0.072 | 1.87 ± 0.025
46 | LFQTIEKLINNSDDCMM [ECM29] | 3.1 ± 0.083 | 2.92 ± 0.072 | 3.09 ± 0.063 | 3.03 ± 0.09
47 | SNDSQSHFDYNTLEFII [YCG1] | 2.52 ± 0.2 | 2.78 ± 0.19 | – | 2.89 ± 0.14
48 | PSDVNIDVMKSQIIPLM [SNU114] | 2.15 ± 0.1 | 1.82 ± 0.053 | 2.65 ± 0.07 | 1.82 ± 0.058
49 | IDKNHGFERLTVNEPQM [SRB7] | 3.03 ± 0.094 | 3.25 ± 0.075 | 3.23 ± 0.14 | 3.02 ± 0.052
50 | FDSVIVENLTVAQECIA [SMC1] | 1.69 ± 0.089 | 1.62 ± 0.11 | 1.84 ± 0.15 | 1.27 ± 0.061

Row | Sequence | protein stability index (doa10∆) | protein stability index (pdr5∆) | protein stability index (san1∆) | protein stability index (ubr1∆)
51 | DNIYRNLQKIDKDSEEL [MED4] | 2.85 ± 0.078 | 3.16 ± 0.058 | 2.85 ± 0.049 | 3.01 ± 0.054
52 | QQQQQQQQPQPQYNMNM [PGD1] | 2.33 ± 0.07 | 2.79 ± 0.065 | 2.67 ± 0.11 | 2.81 ± 0.16
53 | STKRVTKHPSLKTLTHK [POP7] | 2.56 ± 0.062 | 2.78 ± 0.06 | 2.56 ± 0.083 | 2.64 ± 0.061
54 | YDEVKKHWGGGILGNKA [RPL8A] | 3.16 ± 0.11 | 3.4 ± 0.089 | 3.44 ± 0.06 | 3.23 ± 0.061
55 | IVAKYDPPIIIFINYKQ [PRP28] | 2.47 ± 0.075 | 1.77 ± 0.068 | 1.98 ± 0.12 | 1.96 ± 0.048
56 | LEFRWLTSSKSVIVSQF [SIN4] | 1.73 ± 0.056 | 1.56 ± 0.059 | 1.6 ± 0.087 | 1.42 ± 0.061
57 | DNGGTILGIAGEDFAVL [PRE7] | 3.46 ± 0.099 | 3.08 ± 0.13 | 3.34 ± 0.14 | 3.47 ± 0.052
58 | RLKQVFNRALDQSISKL [NNF1] | 2.05 ± 0.056 | 2.11 ± 0.039 | 1.93 ± 0.043 | 2.16 ± 0.036
59 | LSYYVEETNVDIGVLEE [SMC4] | – | 3.38 ± 0.22 | 3.62 ± 0.072 | 3.5 ± 0.1
60 | ESVPTPANAEPQAVTIT [ITC1] | 2.88 ± 0.084 | 2.92 ± 0.075 | 2.62 ± 0.063 | 3.18 ± 0.16
61 | HSSSVFKGTDFVHSVKK [SRB4] | 2.75 ± 0.073 | 2.93 ± 0.074 | 3.15 ± 0.048 | 2.99 ± 0.056
62 | EIDDFNDIDDLDMELAE [SEC65] | 2.68 ± 0.1 | 3.11 ± 0.11 | 2.89 ± 0.089 | 3.22 ± 0.12
63 | YDSRPLEEDSKKVNGTS [PRP8] | 2.99 ± 0.23 | 3.53 ± 0.17 | 3.21 ± 0.098 | 2.94 ± 0.11
64 | LQLASLQQKQRDLILKK [SMC3] | 2.49 ± 0.14 | 2.46 ± 0.16 | 3.1 ± 0.097 | 2.68 ± 0.13
65 | HAGTAIGIMASDGIVLA [PRE9] | 2.96 ± 0.095 | 3.02 ± 0.14 | 3.09 ± 0.1 | 2.42 ± 0.14
66 | QVLSQSADPSLLIDQFS [SWI1] | 3.03 ± 0.1 | 2.96 ± 0.073 | 3.02 ± 0.084 | 2.99 ± 0.057
67 | KAIPTFSFGKPFFSSNT [YIL149C/MLP2] | 3.07 ± 0.048 | 3.14 ± 0.046 | 2.94 ± 0.035 | 3.011 ± 0.028
68 | LPGTEKGRKTNKYANND [CSL4] | 3.22 ± 0.12 | 3.5 ± 0.13 | 3.2 ± 0.072 | 3.41 ± 0.19
69 | QGVYGAVYETLISRMIF [BRR2] | 2.46 ± 0.11 | 1.81 ± 0.093 | 1.36 ± 0.15 | 1.67 ± 0.045
70 | DRHIGCAMSGLTADARS [PUP2] | 2.67 ± 0.096 | 3.08 ± 0.12 | – | 2.69 ± 0.07
71 | LVSVVEAFIASGITDPY [FAS2] | 1.42 ± 0.041 | 1.39 ± 0.042 | 1.67 ± 0.072 | 1.85 ± 0.035
72 | LHLANEHGLQITHTENY [BRN1] | 2.71 ± 0.13 | 2.79 ± 0.13 | 2.68 ± 0.15 | 2.76 ± 0.068
73 | LTKKYSFKIFVDVLVIS [RRP42] | 1.22 ± 0.049 | 1.25 ± 0.051 | 1.41 ± 0.071 | 1.44 ± 0.039
74 | LSSDDLLGKESFKKIIK [YCS4] | 3.25 ± 0.19 | 3.08 ± 0.22 | 3.39 ± 0.063 | 3.57 ± 0.1
75 | QNGQQPPTTSNLIIFLY [YML103C/NUP188] | 2.83 ± 0.05 | 2.78 ± 0.04 | 2.94 ± 0.034 | 3.06 ± 0.035

From the supplement of paper PMC9732359
